The source of these data is publication PMC4297295, “Structural Conservation Despite Huge Sequence Diversity Allows EPCR Binding by the PfEMP1 Family Implicated in Severe Childhood Malaria” (Cell Host & Microbe, 2015).

In general, stoichiometry N refers to a count of units in the complex or per binding partner. What is called Kd is the equilibrium constant for the complex coming apart. A higher Kd goes with weaker binding. What is called koff is the rate constant with which the complex falls apart. Higher therefore signals a short-lived complex. What is called kon is the second-order rate constant of association. Lower therefore signals slower complex formation.

The target of assay [1] is endothelial protein C receptor (EPCR), extracellular domain, not biotinylated (human) (UniProt Q9UNN8). Nature of the assay: AUC.
Assay [2] shares this target. Nature of the assay: SEC-MALS; Superdex 75 analytical column, light scattering at 662 nm at 8 angles (Heleos 8), masses by the Zimm equation (ASTRA 6.1); HB3var03 CIDRα1.4, EPCR and their complex.
Assay [3] addresses endothelial protein C receptor (EPCR), extracellular domain, biotinylated on the N-terminal BAP tag (human) (UniProt Q9UNN8). Nature of the assay: SPR. (In general: Surface plasmon resonance follows binding to a sensor surface in real time, without labels.)
Assay [4] deals with endothelial protein C receptor with an N-terminal biotin (human) (UniProt Q9UNN8). Nature of the assay: SPR; Biacore T200; EPCR biotinylated with BirA and coupled to a biotin capture chip to 150 RU; binding partners injected for 240 s, dissociation 300 s; 1:1 interaction model.
Assay [5] addresses CIDRα1.4 domain of PfEMP1 HB3var03, E. coli construct with domain boundaries for crystallisation (Plasmodium falciparum). Nature of the assay: ITC; MicroCal iTC200, 25°C, 20 mM HEPES pH 7.5, 150 mM NaCl; EPCR (36 µM by the legend, 50 µM by the supplemental methods) injected into the cell with HB3var03 CIDRα1.4. On the technique in general: ITC needs no label: the signal is the heat of the interaction.

For assay [6], the target named is endothelial protein C receptor (EPCR), extracellular domain, biotinylated on the N-terminal BAP tag (human) (UniProt Q9UNN8). Nature of the assay: SPR; Biacore T200; biotinylated EPCR captured on a CAP chip (Biotin Capture Kit) to 150 RU, fresh for each cycle; two-fold dilution series of each CIDRα1 injected for 240 s, dissociation 300 s; 20 mM HEPES pH 7.5, 150 mM NaCl, 0.005% Tween-20, 25°C; surface without EPCR subtracted; global fit to a 1:1 interaction model.

The target in assay [7] is endothelial protein C receptor, extracellular domain (human) (UniProt Q9UNN8). Nature of the assay: small-angle X-ray scattering.
For assay [8], the target named is T1, endothelial protein C receptor (EPCR), extracellular domain, biotinylated on the N-terminal BAP tag (human, UniProt Q9UNN8 18-210, biotin attached to the N-terminal BAP tag (BirA)).
T1 construct: also called biotinylated recombinant EPCR; ECPR
T1 sequence: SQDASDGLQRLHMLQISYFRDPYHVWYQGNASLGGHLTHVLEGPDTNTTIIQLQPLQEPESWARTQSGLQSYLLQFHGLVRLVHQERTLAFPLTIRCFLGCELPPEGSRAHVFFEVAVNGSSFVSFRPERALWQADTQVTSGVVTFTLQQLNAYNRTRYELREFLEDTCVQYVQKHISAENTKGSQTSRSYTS
Nature of the assay: SPR; Biacore T200; biotinylated EPCR captured on a CAP chip (Biotin Capture Kit) to 150 RU, fresh for each cycle; two-fold dilution series of each CIDRα1 injected for 240 s, dissociation 300 s; 20 mM HEPES pH 7.5, 150 mM NaCl, 0.005% Tween-20, 25°C; surface without EPCR subtracted; global fit to a 1:1 interaction model. Conditions: both partners purified.

As to “CIDRα1.4 domain of PfEMP1 HB3var03, E. coli construct with domain boundaries for crystallisation (domain or fragment)”, in assay [1], the stoichiometry N worked out at 1. For the same molecule, in assay [2], the stoichiometry N stood at 1. For the same molecule, in assay [3], the Kd was 0.37 nM, the off-rate constant (koff) came out at 0.000197 s⁻¹ and the kon stood at 532000 M⁻¹ s⁻¹.

On to “HB3var03 CIDRα1.4 F656A (domain or fragment)”, for which, in assay [4], the fold change in the dissociation rate constant against wild-type HB3var03 CIDRα1 came to 100 fold and the fold effect on the affinity against wild-type HB3var03 CIDRα1 amounted to 35 fold.

As to “HB3var03 CIDRα1.4 F655L (domain or fragment)”, in assay [4], the Kd is less than 5 nM.

In assay [5], “endothelial protein C receptor (EPCR), extracellular domain, not biotinylated (from UniProt Q9UNN8 18-210)” displayed a dissociation constant (Kd) of 1.5 nM and a stoichiometry N of 0.94.

Take “HB3var03 CIDRα1.4 F655Y (domain or fragment)”: in assay [4], the Kd is less than 5 nM.

In assay [6], “HB3var03 CIDRα1.4 domain, mutant F655Y (domain or fragment)” returned a Kd of 0.5 nM, a koff of 0.000572 s⁻¹ and a kon of 1.1e+06 M⁻¹ s⁻¹.

In the case of “CIDRα1.4 domain of PfEMP1 IT4var07, E. coli construct with domain boundaries for crystallisation (domain or fragment)”, in assay [3], the Kd came out at 1.3 nM, the koff was 0.000468 s⁻¹ and the kon stood at 370000 M⁻¹ s⁻¹.

Turning to “HB3var03 CIDRα1.4 Q657K (domain or fragment)”, the fold reduction of the affinity against wild-type HB3var03 CIDRα1 in assay [4] stood at 200 fold.

In assay [6], “HB3var03 CIDRα1.4 domain, mutant F656Y (domain or fragment)” registered a Kd of 1.9 nM, a koff of 0.000379 s⁻¹ and a kon of 329000 M⁻¹ s⁻¹.

In assay [6], “HB3var03 CIDRα1.4 domain, mutant W669S (domain or fragment)” came in with a Kd of 11 nM, a koff of 0.000449 s⁻¹ and a kon of 40100 M⁻¹ s⁻¹.

On to “DD2var32 DBLα1.7-CIDRα1.4-DBLβ1 (the three membrane distal domains) (domain or fragment)”, for which the stoichiometry N in assay [7] was 1 PfEMP1:EPCR.

In assay [4], “HB3var03 CIDRα1.4 F656Y (domain or fragment)” displayed a Kd of less than 5 nM and a fold reduction of the affinity against wild-type HB3var03 CIDRα1 of 4 fold.

For “HB3var03 CIDRα1.4 F656V (domain or fragment)”, in assay [4], the Kd is less than 5 nM and the fold reduction of the affinity against wild-type HB3var03 CIDRα1 was found to be 4 fold.

B1: CIDRα1.5b domain 1918-5 (patient isolate 1918) (domain or fragment, Plasmodium falciparum)
chain: PDCGVKCTNGKCEEKTDVDGNCGNKETYIPPRDISPTEISVLYSGYKRDDISEKLETFCREPTNNKSKNNETWKCYYKHSYNNKINKCIRQNEENIKNKLIINLDTFFEFWVRSFLNDTIDWKYDLNTCMNFTNTTKCNNNCNKNCKCFEQWVNKKETEWKNVAQYFFKHNEISKKKYCEILKDIFENYYVEVIKKVFKGDNKWKEIMVDIKNKIDCSNLKNGTEHLEKIINVLINQEQADATTCLKNNPIESCPKAEPQKSDENTQPQDTPPNSC
notes: The C-terminal V5 and His tags are told for the newly synthesised domains (D1:p2); also called CIDRa1.5b 1918-5_1918; 1918-5 (1.5b)
B1: in assay [8], the Kd turned out to be 229 nM, the koff worked out at 0.000108 s⁻¹ and the kon was determined as 471 M⁻¹ s⁻¹.
